The target in the test is T1, Mre11/Rad50 complex (Q9UZC9, Q9UZC8), HIS fusion (Pyrococcus abyssi, UniProt Q9UZC9 1-415; Q9UZC8 1-880).
T1 construct: Mre11 of Pyrococcus abyssi, full length, in the FL complex; Rad50 of Pyrococcus abyssi, full length, in the FL complex; also called Mre11 complex; source: E. coli Rosetta, purified on magnetic beads (details in Materials S1); not shown: His tag, N-terminal, kept
In words: pull-down; 10 ug HIS fusion Mre11/Rad50 immobilised on Co2+ magnetic beads, with or without DNase I treatment, incubated with 0.5 ug PCNA 1 h at room temperature in TrisHCl 20 mM pH 8, NaCl 150 mM, DTT 1 mM with BSA; Western blot with anti-PCNA and anti-HisTag. To be noted: both partners purified.

T1 sequence (Q9UZC9 whole entry, chain 1 of 2, the tested form may be a part): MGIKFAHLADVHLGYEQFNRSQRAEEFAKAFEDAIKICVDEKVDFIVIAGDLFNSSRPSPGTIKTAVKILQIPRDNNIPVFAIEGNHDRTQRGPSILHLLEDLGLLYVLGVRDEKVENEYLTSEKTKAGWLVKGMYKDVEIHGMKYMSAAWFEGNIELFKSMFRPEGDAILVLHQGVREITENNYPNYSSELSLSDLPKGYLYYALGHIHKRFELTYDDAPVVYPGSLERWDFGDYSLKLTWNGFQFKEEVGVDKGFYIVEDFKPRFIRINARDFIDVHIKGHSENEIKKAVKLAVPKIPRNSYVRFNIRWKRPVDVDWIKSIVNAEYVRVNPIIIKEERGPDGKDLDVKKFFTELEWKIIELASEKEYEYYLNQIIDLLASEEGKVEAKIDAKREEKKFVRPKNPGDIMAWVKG
T1 sequence (Q9UZC8 whole entry, chain 2 of 2, the tested form may be a part): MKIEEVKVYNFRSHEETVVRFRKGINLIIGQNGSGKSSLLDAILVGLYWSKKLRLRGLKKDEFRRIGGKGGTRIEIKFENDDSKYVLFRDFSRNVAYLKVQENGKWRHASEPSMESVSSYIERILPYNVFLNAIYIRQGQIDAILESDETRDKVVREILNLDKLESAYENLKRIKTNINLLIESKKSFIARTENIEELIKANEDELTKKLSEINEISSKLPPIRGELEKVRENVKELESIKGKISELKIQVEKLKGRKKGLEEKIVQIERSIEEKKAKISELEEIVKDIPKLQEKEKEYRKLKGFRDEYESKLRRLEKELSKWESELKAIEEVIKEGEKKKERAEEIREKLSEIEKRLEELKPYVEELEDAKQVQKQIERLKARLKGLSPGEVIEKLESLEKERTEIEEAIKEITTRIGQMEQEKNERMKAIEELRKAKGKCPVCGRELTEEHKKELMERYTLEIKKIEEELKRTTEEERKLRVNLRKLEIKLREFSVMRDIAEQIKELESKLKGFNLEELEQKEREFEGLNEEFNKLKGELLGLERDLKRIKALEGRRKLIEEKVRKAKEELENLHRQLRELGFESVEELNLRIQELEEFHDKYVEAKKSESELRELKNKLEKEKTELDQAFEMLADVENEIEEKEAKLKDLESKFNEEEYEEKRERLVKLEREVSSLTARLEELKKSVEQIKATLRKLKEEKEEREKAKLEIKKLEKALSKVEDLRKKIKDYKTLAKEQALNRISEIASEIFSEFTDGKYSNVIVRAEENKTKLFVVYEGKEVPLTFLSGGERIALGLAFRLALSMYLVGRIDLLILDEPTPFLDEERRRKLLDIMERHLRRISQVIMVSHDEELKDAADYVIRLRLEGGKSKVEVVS

B1: purified PCNA (prey of the Mre11/Rad50 pull-down) (natural protein, Pyrococcus abyssi, UniProt Q9UYX8 1-249, looked up)
chain: MPFEIVFEGAKEFAQLIETASRLIDEAAFKVTEEGISMRAMDPSRVVLIDLNLPASIFSKYEVDGEETIGVNMDHLKKVLKRGKAKETLILRKGEENFLEISLQGTATRTFKLPLIDVEEIEVDLPELPFTAKVVILGDVIKEAVKDASLVSDSMKFIAKENEFTMRAEGETQEVEVKLTLEDEGLLDIEVQEETKSAYGISYLSDMVKGLGKADEVTIKFGNEMPMQMEYYIRDEGRLIFLLAPRVEE
notes: it was the prey on Co2+ beads and was detected with anti-PCNA, so it is kept apart from m1; source: purified
On to B1, for which the binding result is “binds”.

The record behind these values is PMC3820547, “An Extended Network of Genomic Maintenance in the Archaeon Pyrococcus abyssi Highlights Unexpected Associations between Eucaryotic Homologs” (PLoS ONE, 2013).
